The labels stand for the following.
T1: Soluble human IL-17R (huIL-17R-FpH) (human, UniProt Q96F46 33-320)
T1 construct: also called IL-17R extracellular domain
T1 sequence: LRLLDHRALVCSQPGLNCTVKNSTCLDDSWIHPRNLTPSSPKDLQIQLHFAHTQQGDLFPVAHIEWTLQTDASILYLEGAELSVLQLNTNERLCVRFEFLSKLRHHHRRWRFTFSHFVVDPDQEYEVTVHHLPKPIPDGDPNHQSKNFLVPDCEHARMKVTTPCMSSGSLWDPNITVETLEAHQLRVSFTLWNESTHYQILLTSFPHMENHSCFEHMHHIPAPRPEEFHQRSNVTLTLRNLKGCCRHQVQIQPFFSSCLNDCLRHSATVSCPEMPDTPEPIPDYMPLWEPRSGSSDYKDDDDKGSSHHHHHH

B1: Antibody 16435 (antibody, human IgG2, kappa, V domains shown)
VH: QVQLVQSGAEVKKPGASVKVSCKASGYTFTRYGISWVRQAPGQGLEWMGWISTYSGNTNYAQKLQGRVTMTTDTSTSTAYMELRSLRSDDTAVYYCARAQLYFDYWGQGTLVTVSS
VL: EIVMTQSPATLSVSPGERATLSCRASQSVSSNLAWFQQKPGQAPRLLIYDASTRATGVPARFSGSGSGTEFTLTISSLQSEDFAVYYCQQYDNWPLTFGGGTKVEIKR
notes: also called LC: P66L, D90E
B2: Antibody 16438 (antibody, V domains shown)
VH: QVQLVQSGAEVKKPGASVKVSCKASGYTFTRYGISWVRQAPGQGLEWMGWISTYSGNTNYAQKLQGRVTMTTDTSTSTAYMELRSLRSDDTAVYYCARRQQYFDYWGQGTLVTVSS
VL: EIVMTQSPATLSVSPGERATLSCRASQSVSSNLAWFQQKPGQAPRLLIYDASTRATGVPARFSGSGSGTEFTLTISSLQSEDFAVYYCQQYDNWPLTFGGGTKVEIK
B3: Antibody 16441 (antibody, V domains shown)
VH: QVQLVQSGAEVKKPGASVKVSCKASGYTFTRYGISWVRQAPGQGLEWMGWISTYSGNTNYAQKLQGRVTMTTDTSTSTAYMELRSLRSDDTAVYYCARAQQYFDYWGQGTLVTVSS
VL: EIVMTQSPATLSVSPGERATLSCRASQSVSSNLAWFQQKPGQAPRLLIYDASTRATGVPARFSGSGSGTEFTLTISSLQSEDFAVYYCQQYDNWPLTFGGGTKVEIK
B4: Antibody 16444 (antibody, human IgG2, kappa, V domains shown)
VH: QVQLVQSGAEVKKPGASVKVSCKASGYTFTRYGISWVRQAPGQGLEWMGWISTYSGNTNYAQKLQGRVTMTTDTSTSTAYMELRSLRSDDTAVYYCARAQQYFDYWGQGTLVTVSS
VL: EIVMTQSPATLSVSPGERATLSCRASQSVSSNLAWFQQKPGQAPRLLIYDASTRATGVPARFSGSGSGTEFTLTISSLQSEDFAVYYCQQYDNAPLTFGGGTKVEIKR
notes: also called LC: P66L, D90E, W114A
B5: Antibody 16439 (antibody, V domains shown)
VH: QVQLVQSGAEVKKPGASVKVSCKASGYTFTRYGISWVRQAPGQGLEWMGWISTYSGNTNYAQKLQGRVTMTTDTSTSTAYMELRSLRSDDTAVYYCARRQQYFDYWGQGTLVTVSS
VL: EIVMTQSPATLSVSPGERATLSCRASQSVSSNLAWFQQKPGQAPRLLIYDASTRATGVPARFSGSGSGTEFTLTISSLQSEDFAVYYCQQYDNAPLTFGGGTKVEIK
B6: Antibody 16440 (antibody, V domains shown)
VH: QVQLVQSGAEVKKPGASVKVSCKASGYTFTRYGISWVRQAPGQGLEWMGWISTYSGNTNYAQKLQGRVTMTTDTSTSTAYMELRSLRSDDTAVYYCARAQQYFDYWGQGTLVTVSS
VL: EIVMTQSPATLSVSPGERATLSCRASQSVSSNLAWFQQKPGQAPRPLIYDASTRATGVPARFSGSGSGTDFTLTISSLQSEDFAVYYCQQYDNWPLTFGGGTKVEIK
B7: Antibody 10183 (antibody, V domains shown)
VH: QVQLQESGPGLVKPSQTLSLTCTVSGGSISSGDYFWSWIRQLPGKGLEWIGHIHNSGTTYYNPSLKSRVTISVDTSKKQFSLRLSSVTAADTAVYYCARDRGGDYAYGMDVWGQGTTVTVSS
VL: EIVLTQSPGTLSLSPGERATLSCRASQGISRSRLAWYQQKPGQAPSLLIYGASSRATGIPDRFSGSGSGTDFTLTISRLEPEDFAVYYCQQFGSSPWTFGQGTKVEIK
B8: Antibody 4341 (antibody, human IgG1, kappa, V domains shown)
VH: QVQLQESGPGLVKPSQTLSLTCTVSGGSISSGDYFWSWIRQLPGKGLEWIGHIHNSGTTYYNPSLKSRVTISVDTSKKQFSLRLSSVTAADTAVYYCARDRGGDYAYGMDVWGQGTTVTVSS
VL: EIVLTQSPGTLSLSPGERATLSCRASQGISRSELAWYQQKPGQAPSLLIYGASSRATGIPDRFSGSGSGTDFTLTISRLEPEDFAVYYCQQFGSSPWTFGQGTKVEIKR
notes: also called LC:Y53E)
B9: Antibody 10184 (antibody, V domains shown)
VH: QVQLQESGPGLVKPSQTLSLTCTVSGGSISSGDYFWSWIRQLPGKGLEWIGHIHNSGTTYYNPSLKSRVTISVDTSKKQFSLRLSSVTAADTAVYYCARDRGGDYRYGMDVWGQGTTVTVSS
VL: EIVLTQSPGTLSLSPGERATLSCRASQGISRSRLAWYQQKPGQAPSLLIYGASSRATGIPDRFSGSGSGTDFTLTISRLEPEDFAVYYCQQFGSSPWTFGQGTKVEIK
B10: Antibody 4241 (antibody, human IgG1, kappa, V domains shown)
VH: QVQLQESGPGLVKPSQTLSLTCTVSGGSISSGDYFWSWIRQLPGKGLEWIGHIHNSGTTYYNPSLKSRVTISVDTSKKQFSLRLSSVTAADTAVYYCARDRGGDYEYGMDVWGQGTTVTVSS
VL: EIVLTQSPGTLSLSPGERATLSCRASQGISRSALAWYQQKPGQAPSLLIYGASSRATGIPDRFSGSGSGTDFTLTISRLEPEDFAVYYCQQFGSSPWTFGQGTKVEIKR
notes: also called LC:Y53A)

The target in one assay is T1, Soluble human IL-17R (huIL-17R-FpH). Briefly: BIAcore solution equilibrium assay: antibody incubated with IL-17R, free IL-17R read on immobilised antibody 16429.
B1: the binding result is on record as “no binding (tested: 30 µM antibody with 30 nM IL-17R)”.

B2: the binding result is recorded as “no binding (tested: 30 µM antibody with 30 nM IL-17R)”.

In the case of B3, the binding result is reported as “no binding (tested: 30 µM antibody with 30 nM IL-17R)”.

In the case of B4, the binding result is “no binding (tested: 30 µM antibody with 30 nM IL-17R)”.

In the case of B5, the binding result was “no binding (tested: 30 µM antibody with 30 nM IL-17R)”.

Regarding B6, the binding result is on record as “no binding (tested: 30 µM antibody with 30 nM IL-17R)”.

The next assay deals with T2, Soluble human TR2 (huTR2 long-huFc (IgG1)) (human).
T2 construct: also called Trail Receptor 2; TRAIL (huTR2)
T2 sequence (chain, as listed by the source limits assumed): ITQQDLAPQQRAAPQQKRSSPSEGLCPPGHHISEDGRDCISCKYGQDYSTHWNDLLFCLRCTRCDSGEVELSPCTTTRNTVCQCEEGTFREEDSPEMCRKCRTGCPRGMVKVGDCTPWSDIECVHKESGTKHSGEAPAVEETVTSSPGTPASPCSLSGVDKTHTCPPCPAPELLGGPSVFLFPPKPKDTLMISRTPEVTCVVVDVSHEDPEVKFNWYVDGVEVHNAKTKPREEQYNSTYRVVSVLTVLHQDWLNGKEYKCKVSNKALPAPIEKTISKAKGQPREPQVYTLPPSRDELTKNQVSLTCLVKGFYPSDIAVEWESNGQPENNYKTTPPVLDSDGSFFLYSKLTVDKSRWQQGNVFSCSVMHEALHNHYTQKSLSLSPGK
Nature of the assay: BIAcore solution equilibrium assay: antibody incubated with TR2, free TR2 read on immobilised antibody 16449. A general note: Surface plasmon resonance follows binding to a sensor surface in real time, without labels.
With B7, the binding result is “no binding (tested: 50 µM antibody with 10 nM TR2)”.

Consider B8, for which the binding result is recorded as “no binding (tested: 50 µM antibody with 10 nM TR2)”.

With B9, the binding result is on record as “no binding (tested: 50 µM antibody with 10 nM TR2)”.

As for B10, the binding result is listed as “no binding (tested: 50 µM antibody with 10 nM TR2)”.

These data come from patent US20130189283A1 (Amgen, published 2013).
